Assay results reported in publication PMC8857205.

Target: Glu14 (UniProt position 14, GAILAEVIGTT)
Assay: NMR
[1] = TPP+-bound, cited from earlier work

Row | Substance | pKa [1] | pKa (45 °C, 20 mM NaCl plus buffer salts (total ionic strength not stated), 50 mM sodium acetate, 50 mM MOPS, 50 mM MES, 50 mM bicine, 2 mM TCEP, 0.01% DSS, F4-TPP+-bound (saturated), folded dimer in bicelles)
1 | EmrE (multidrug transporter, small multidrug resistance family), wild type (Escherichia coli) | 6.8 ± 0.1 | 
2 | S64V-EmrE (Escherichia coli; S64V) | 7.0 ± 0.1 | 6.9 ± 0.1
